{"source": "patent US20250115677A1", "about": "“Anti-CEA Antibody Drug Conjugates and Methods of Use” (BeiGene Switzerland GmbH, priority 2022, published 2025)", "key": {"[1]": {"biological_target": "T1, CEACAM6 (bar group in Fig. 9B, flow cytometry) (human, UniProt P40199)", "T1 construct": "on cells (flow cytometry)", "T1 sequence (single chain, looked up)": "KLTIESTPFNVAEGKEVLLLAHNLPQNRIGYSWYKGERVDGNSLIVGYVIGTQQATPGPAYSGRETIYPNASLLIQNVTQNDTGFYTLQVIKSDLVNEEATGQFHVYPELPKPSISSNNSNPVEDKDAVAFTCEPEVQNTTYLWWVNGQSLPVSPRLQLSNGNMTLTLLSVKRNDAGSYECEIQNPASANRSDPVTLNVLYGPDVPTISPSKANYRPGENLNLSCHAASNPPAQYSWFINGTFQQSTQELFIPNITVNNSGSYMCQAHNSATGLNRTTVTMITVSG", "test": "flow cytometry, Alexa Fluor 647 anti-human IgG Fc", "method": "(§1) Cell fluorescence was quantified using a flow cytometer (Guava easyCyte™ 8HT, Merck-Millipore, USA). For antigen ELISA, CEACAM1(SEQ ID NO:64) (Cat. No. 10822-H08H, Sino Biological, China), CHIM (SEQ ID NO:63), CEA (SEQ ID NO:55) or CEACAM6 (SEQ ID NO:57) were coated in 96-well plates at a concentration of 10 μg/ml overnight at 4° C."}, "[2]": {"biological_target": "T2, CEACAM3 on transiently transfected HEK293 cells (Homo sapiens (Human), UniProt P40198 35-252)", "T2 sequence": "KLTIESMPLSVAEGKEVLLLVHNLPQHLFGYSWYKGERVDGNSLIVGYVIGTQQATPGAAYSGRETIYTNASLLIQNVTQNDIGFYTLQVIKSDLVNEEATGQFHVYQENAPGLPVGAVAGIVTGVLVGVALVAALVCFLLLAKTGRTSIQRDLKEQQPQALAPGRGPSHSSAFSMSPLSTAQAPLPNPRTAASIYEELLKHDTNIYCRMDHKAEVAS", "test": "flow cytometry on transiently transfected HEK293 cells", "method": "as §1"}, "[3]": {"biological_target": "T3, CEACAM7 on transiently transfected HEK293 cells (Homo sapiens (Human), UniProt Q14002 36-242)", "T3 sequence": "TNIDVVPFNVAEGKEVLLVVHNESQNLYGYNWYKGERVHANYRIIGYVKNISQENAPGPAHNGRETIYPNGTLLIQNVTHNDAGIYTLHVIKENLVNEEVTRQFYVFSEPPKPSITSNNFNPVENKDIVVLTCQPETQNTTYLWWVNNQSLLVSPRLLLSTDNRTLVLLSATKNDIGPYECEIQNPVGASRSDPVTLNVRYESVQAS", "test": "flow cytometry on transiently transfected HEK293 cells", "method": "as §1"}, "[4]": {"biological_target": "T4, CEACAM8 on transiently transfected HEK293 cells (Homo sapiens (Human), UniProt P31997 35-320)", "T4 sequence": "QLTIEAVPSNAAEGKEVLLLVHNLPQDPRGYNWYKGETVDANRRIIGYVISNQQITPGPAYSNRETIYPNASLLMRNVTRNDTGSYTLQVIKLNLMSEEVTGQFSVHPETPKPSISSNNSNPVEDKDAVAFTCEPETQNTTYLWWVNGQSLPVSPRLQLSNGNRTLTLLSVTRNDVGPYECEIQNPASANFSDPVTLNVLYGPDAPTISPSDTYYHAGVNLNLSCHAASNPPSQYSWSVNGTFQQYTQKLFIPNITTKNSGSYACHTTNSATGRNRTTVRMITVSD", "test": "flow cytometry on transiently transfected HEK293 cells", "method": "as §1"}, "[5]": {"biological_target": "T5, human CEA on cells (MKN45, LOVO, NCI-H2122, LS174T, CT26/CEA) (human, UniProt P06731 35-685)", "T5 construct": "Full-length human CEA, endogenous on tumour cell lines or transduced; also called native CEA on living cells; huCEA surface protein", "T5 sequence": "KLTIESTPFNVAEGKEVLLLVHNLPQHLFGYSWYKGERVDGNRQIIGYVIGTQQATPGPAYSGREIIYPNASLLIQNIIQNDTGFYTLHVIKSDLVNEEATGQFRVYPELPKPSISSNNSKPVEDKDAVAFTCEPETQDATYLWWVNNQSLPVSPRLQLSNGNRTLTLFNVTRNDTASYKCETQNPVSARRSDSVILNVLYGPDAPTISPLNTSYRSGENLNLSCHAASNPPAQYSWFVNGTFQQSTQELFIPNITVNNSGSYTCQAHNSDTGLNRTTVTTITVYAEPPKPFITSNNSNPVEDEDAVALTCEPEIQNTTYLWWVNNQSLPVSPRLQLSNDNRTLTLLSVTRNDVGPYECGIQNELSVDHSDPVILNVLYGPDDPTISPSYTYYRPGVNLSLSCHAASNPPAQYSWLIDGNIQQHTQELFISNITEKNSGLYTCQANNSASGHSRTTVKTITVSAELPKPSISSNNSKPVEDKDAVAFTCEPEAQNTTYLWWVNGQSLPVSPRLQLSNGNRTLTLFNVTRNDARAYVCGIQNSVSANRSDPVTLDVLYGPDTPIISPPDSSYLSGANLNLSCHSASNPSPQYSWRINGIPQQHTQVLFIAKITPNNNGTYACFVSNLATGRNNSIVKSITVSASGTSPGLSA", "test": "flow cytometry on MKN45 cells, BGA5384 premixed with 0.50 ug/ml recombinant soluble CEA (competitor), anti-huFc-APC", "method": "(§2) The mixtures were then incubated with 2×10^5 CEA-expressing cells, such as MKN45 cells, for 30 minutes at 4° C. The cells were stained with secondary antibody anti-huFc-APC (Cat. No. 409320, BioLegend, USA) and analyzed by flow cytometry."}, "[6]": {"biological_target": "T5, human CEA on cells (MKN45, LOVO, …)", "test": "flow cytometry on MKN45 cells, BGA5384 premixed with 2.00 ug/ml recombinant soluble CEA (competitor), anti-huFc-APC", "method": "as §2"}, "[7]": {"biological_target": "T5, human CEA on cells (MKN45, LOVO, …)", "test": "flow cytometry on MKN45 cells, no soluble CEA, anti-huFc-APC", "method": "as §2"}}, "data": [{"binder": "BGA5384 (antibody, human IgG1, kappa, V domains shown, BGA6710 with Y57K in VH; human IgG1 format; also called BGA7592-1K) VH: QVQLVQSGAEVKKPGASVKVSCKASGYIFTSYYLHWVRQAPGQGLEWIGYINPQTGKTSYAQKFQGRVTMTRDTSTSTVYMELSSLRSEDTAVYYCAREYGNYNYPLDYWGQGTLVTVSS VL: DIQMTQSPSSLSASVGDRVTITCRASENQYGYLAWYQQKPGKVPKLLIYNYKNLVEGVPSRFSGSGSGTDFTLTISSLQPEDVATYYCQHHLGTPYTFGQGTKVEIKR", "values": [{"measurement": "binding result", "setting": "[1]", "result": "no binding"}, {"measurement": "binding result", "setting": "[2]", "result": "no binding (tested: 2 µg/ml)"}, {"measurement": "binding result", "setting": "[3]", "result": "no binding (tested: 2 µg/ml)"}, {"measurement": "binding result", "setting": "[4]", "result": "no binding (tested: 2 µg/ml)"}, {"measurement": "EC50 (read off the curve)", "setting": "[5]", "result": "~1", "unit": "µg/mL"}, {"measurement": "EC50 (read off the curve)", "setting": "[6]", "result": "~2", "unit": "µg/mL"}, {"measurement": "EC50 (read off the curve)", "setting": "[7]", "result": "~0.7", "unit": "µg/mL"}]}]}
